Measured values taken from the nanobody polyreactivity screen of Harvey et al. (2022).

Experiment: yeast display, Sf9 membrane polyspecificity reagent, FACS + sequencing; frameworks hold sequencing errors
Outline: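 In a synthetic yeast display library (Saccharomyces cerevisiae BJ5465), nanobody expression was induced with galactose for 36–48 hours. FACS gates were set low and high (top ~1%) using anti-HA fluorescence for expression and streptavidin fluorescence for binding of the Sf9 membrane reagent. Each polyreactivity label is drawn from the gate of origin.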
With “QVQLVESGGGLVQAGGSLRLSCAASGRTFWFNAMGWYRQAPGKARELVAAISGITGSTYYADSVKGRITISRDNAKNTVYLQMNSLKPEATAVYYCATNRRGTWDYDYWGQGTQVTVSS” the “polyreactivity (PSR sort gate)” value was “low polyreactivity”.
For “QVQLVESGGGLVQAGGSLRLSCAASGRTFWFYAMGWYRQAPGKERELVATINYRGGTTYYADSVKGRFTISRDNAKNTVYLQMNSLKPEDTAVYYCAVRPTRTFIYVYWGQGTEVTVSS”, the “polyreactivity (PSR sort gate)” value was “high polyreactivity”.
With “QVQLVESGGGLVQAGGSLRLSCAASGRTFWGITMGWYRQAPGKERELVASITYSGGRTYYADSVKGRFTISRDNAKNTVYLQMNSLKPEDTAVYYCAATLYRYRYFGYDYWGQGTQVTVSS” the “polyreactivity (PSR sort gate)” value was “high polyreactivity”.
In the case of “QVQLVESGGGLVQAGGSLRLSCAASGRTFWIYAMGWYRQAPGKERELVAGISRSGGSTNYADSVKGRFTISRDNAKNTVYLQMNSLKPEDTAVYYCNTDPYSSAWYNYDYWGQGTQVTVSS”, the “polyreactivity (PSR sort gate)” value was “low polyreactivity”.
In the case of “QVQLVESGGGLVQAGGSLRLSCAASGRTFWKNTMGWSRQAPGKERELVAVISSGGVSTSYADSVKGRFTISRDNAKNTVYLQMNSLKPEDTAVYYCAADGYYIGPYDYWGQGTQVTVSS”, the “polyreactivity (PSR sort gate)” value was “low polyreactivity”.
In the case of “QVQLVESGGGLVQAGGSLRLSCAASGRTFWNYAMGWYRQAPGKERDLVAVIRFSDGSTYYAYSVKGRFTISRDNAKNTVYLHMNSLKPEDTAVYYCAAKGPRRWGSGFDYWGQGTQVTVSS”, the “polyreactivity (PSR sort gate)” value was “low polyreactivity”.
In the case of “QVQLVESGGGLVQAGGSLRLSCAASGRTFWPYVMGWYRQAPGKERELVASITRSGGTTNYADSVKGRFTISRDNAKNTVYLQMNSLKPEDTAVYYCNARTVYSWSREYNYWGQGTQVTVSS”, the “polyreactivity (PSR sort gate)” value was “high polyreactivity”.
In the case of “QVQLVESGGGLVQAGGSLRLSCAASGRTFWRNAMGWYRQAPWKERELVAAISRSGDSTRYADSVKGRFTISRDNAKYSVYLQRTSLKPEATAVYYCNKLGTGVYEMDYWGQGTKVTVSS”, the “polyreactivity (PSR sort gate)” value was “high polyreactivity”.
For “QVQLVESGGGLVQAGGSLRLSCAASGRTFWRYAMGWDRQAPGKERELVAGITNSGGNTYYADSVKGRFTISRDNAKNTVYLQMNSLKPEDTAVYYCAARSGRFKYSSWSRGPTYDYWGQGTQVTVSS”, the “polyreactivity (PSR sort gate)” value was “low polyreactivity”.
In the case of “QVQLVESGGGLVQAGGSLRLSCAASGRTFWSYAMGWYRQAPGKEREFVAAISRRGGITYYADSVKGRFTISRDNAKNTVYLQMNSLKPEDTAVYYCAKGAQSYYGGQVKYDYWGQGTQVTVSS”, the “polyreactivity (PSR sort gate)” value was “high polyreactivity”.
In the case of “QVQLVESGGGLVQAGGSLRLSCAASGRTFWTYTMGWYRQAPGKEREFVAAITFGDGSTSYADSVKGRFTISRDNAKNTVYLQMNSLKPEDTAVYSCAKRWRRRFVDVWSLYDYWGQGTQVTVSS”, the “polyreactivity (PSR sort gate)” value was “low polyreactivity”.
With “QVQLVESGGGLVQAGGSLRLSCAASGRTFWWYTMGWYRQAPGKERELVAVISSTGGRTYYADSVKGRFTISRDNAKNTVYLQMNSLKPEDTSVYYCAAEYVSAKWEYGYWGQGTQVTVSS” the “polyreactivity (PSR sort gate)” value was “low polyreactivity”.
In the case of “QVQLVESGGGLVQAGGSLRLSCAASGRTFWYNAMGWYRQAPGKERELVAAISSSGGTTYYADSVKGRFTISRDNAKNTVYLQMNSLIPEDTAVYYCARQRRSVNVYKNIYKYWGQGTQVNVSS”, the “polyreactivity (PSR sort gate)” value was “high polyreactivity”.
For “QVQLVESGGGLVQAGGSLRLSCAASGRTFWYYAMGWYRPAPGKERELVAGIRSGGSTYYADSVKGRFTISRDNAKNTVYLQMNSLKPEDTAVYYCATDYYYSNAKYDYWGQGTQVTVSS”, the “polyreactivity (PSR sort gate)” value was “high polyreactivity”.
With “QVQLVESGGGLVQAGGSLRLSCAASGRTFWYYAMGWYRQAPGKERELVASISRSGGSTYYADSVKGRFTISRDNAKNTVYLQMNSLKPEDTAVYYCARGSELGYYAWVYYWGQGTQVTVSS” the “polyreactivity (PSR sort gate)” value was “high polyreactivity”.
In the case of “QVQLVESGGGLVQAGGSLRLSCAASGRTFWYYAMGWYRQAPGKERELVAVINSSGGRTYYADSVKGRFTISRDNAKNTVYLQMNSLKPEDTAVYYCAAYRGVPSRYDYWGQGTQVTVSS”, the “polyreactivity (PSR sort gate)” value was “high polyreactivity”.
With “QVQLVESGGGLVQAGGSLRLSCAASGRTFWYYDMGWSRQAPGKERELVAAISRSGGSTYYADSVKGRFTISRDNAKNTVYLQMNSLKPEDTAVYFCAAVSYGYWVTEYYYWGQGSQVTVSS” the “polyreactivity (PSR sort gate)” value was “high polyreactivity”.
In the case of “QVQLVESGGGLVQAGGSLRLSCAASGRTFWYYEMGWYRQAPGKERELVATINNVGSTHYADSVKGRFTISRDNAKNTVYLQMNSLKPEDTAVYYCGRASYGKMDYWGQGTQVTVSS”, the “polyreactivity (PSR sort gate)” value was “high polyreactivity”.
With “QVQLVESGGGLVQAGGSLRLSCAASGRTFWYYTMGWYRQAPGKERELVAAISRSGGSTYYADSVKGRFTISRDNAKNTVYLQMNSLKPEDSAVYFCAAGVQSSVYPYYRFDYWGQGTQVTVSS” the “polyreactivity (PSR sort gate)” value was “high polyreactivity”.
In the case of “QVQLVESGGGLVQAGGSLRLSCAASGRTFWYYTMGWYRQAPGKERELVAAITRRGGSTYYADSVKGRFTISRDNAKNTVYLQMNSLKPEDTAVYYCARGGSRLTQGWLVTPYDYDYWGQGTQVTVSS”, the “polyreactivity (PSR sort gate)” value was “high polyreactivity”.
In the case of “QVQLVESGGGLVQAGGSLRLSCAASGRTFYANAMGWYRQAPGKERELVAGISYSGGNTYYADSVKGRFTISRDNAKNTVYLQMNRLKPEYTAVYYCAAATDWEYWTYEYWRQGTQVTVSS”, the “polyreactivity (PSR sort gate)” value was “low polyreactivity”.
With “QVQLVESGGGLVQAGGSLRLSCAASGRTFYANDMGWYRQAPGKERELVAAISSSVTSTHYADSVKGRFTISRDNAKNTVYLQMNSLKPEDTAVYYCNKDPIREVPPPGPSEMDYWGQGTQVTVSS” the “polyreactivity (PSR sort gate)” value was “low polyreactivity”.
In the case of “QVQLVESGGGLVQAGGSLRLSCAASGRTFYAYVMGWYRQAPGKERELVAAISGGGRTYYADSVKGRFTISRDNAKNTVYLQMNSLKPEDTAVYYCAAVSLWYSAYEYWGQGTQVTVSS”, the “polyreactivity (PSR sort gate)” value was “high polyreactivity”.
With “QVQLVESGGGLVQAGGSLRLSCAASGRTFYDNTMGWYRQAPGKERELVAAINWSGTRTYYADSVKGRFTISRDNAKNTVYLQMNSLKPEDTAVYYCAADGPFRRTYGYWGQGTQVTVSS” the “polyreactivity (PSR sort gate)” value was “low polyreactivity”.
In the case of “QVQLVESGGGLVQAGGSLRLSCAASGRTFYDNTMGWYRQAPWKERELVAAISRGGSTYADSVKGRFTISRDNAKNTVYLQMNSLKPEDTAVYYCNKRSITTEYGYWGQGTQVTVSS”, the “polyreactivity (PSR sort gate)” value was “low polyreactivity”.
In the case of “QVQLVESGGGLVQAGGSLRLSCAASGRTFYDYAMGWYRQAPGKERELVAGIRWSGGSTYYADSVKGRFTISRDNAKNTVYLQMISLKPEDTAVYYCAADWFAGVAADVEYDYWGQGTQVTVSS”, the “polyreactivity (PSR sort gate)” value was “low polyreactivity”.
For “QVQLVESGGGLVQAGGSLRLSCAASGRTFYEYTIGWYRQAPGKERELVAAITWSVGSTYYADSVKGRFTISRDIAKNTVYLQMNSLKPEETAVYDCAAYYYVWYYYWGQGTQVTVSS”, the “polyreactivity (PSR sort gate)” value was “low polyreactivity”.
With “QVQLVESGGGLVQAGGSLRLSCAASGRTFYFNAMGWYRPAPGKERELVAAITSGVRTKYADSVKGRFTISRDNAKNTVYLQMNSLKPEDTAVYYCAAGGYPSRYAPWMEYWGQGTQVTVSS” the “polyreactivity (PSR sort gate)” value was “high polyreactivity”.
For “QVQLVESGGGLVQAGGSLRLSCAASGRTFYFYAMGWYRQAPGKERELVAAISSGASTYYADSVKGRFTISRDNAKNTVYLQMNSLKPEDTAVYYCAAEFWTQWSGYEYWGQGTQVTVSS”, the “polyreactivity (PSR sort gate)” value was “high polyreactivity”.
With “QVQLVESGGGLVQAGGSLRLSCAASGRTFYFYAMGWYRQAPGKERELVAAISWTGGITYYADSVKGRFTISRDNAKNTVYLQMNSLKPEDTAVYYCAAGYYYKVYWGQGTQVTVSS” the “polyreactivity (PSR sort gate)” value was “low polyreactivity”.
For “QVQLVESGGGLVQAGGSLRLSCAASGRTFYFYAMGWYRQAPGKERELVAGISWRGVSTYYADSVKGRFTISRDNAKNTVYLQMNSLKPEDTAVYYCAADIGRHTDNYDPRYDYWGQGTQVTVSS”, the “polyreactivity (PSR sort gate)” value was “low polyreactivity”.
For “QVQLVESGGGLVQAGGSLRLSCAASGRTFYGNAMGWYRQAPGKERELVAAISWSGGSTYYADSVKGRFTISRDNAKNTVYLQMNSLKPEDTAVYYCNADYFAWDLMYYWGHGTQVTVSS”, the “polyreactivity (PSR sort gate)” value was “low polyreactivity”.
In the case of “QVQLVESGGGLVQAGGSLRLSCAASGRTFYGNAMGWYSQAPGKERELVAAITDVDSTYYADSVKGRFTISRDNAKNSVYLQMNSLKPEDTAVYYCNADTSWGYPYGYWGQGTQVTVSS”, the “polyreactivity (PSR sort gate)” value was “low polyreactivity”.
For “QVQLVESGGGLVQAGGSLRLSCAASGRTFYGNTMGWYIQAPGKERELVAAITRSGGSTYYADSVKGRFTISRDNAKNTVYFQMNSLKPEDTAVYYCAASRTYYAPYGYWGQGTQVTVSS”, the “polyreactivity (PSR sort gate)” value was “high polyreactivity”.
With “QVQLVESGGGLVQAGGSLRLSCAASGRTFYGYAMGWSRPAPGKERELVAAISTGGSTSYADSVKGRFTISRDNAKNTVYLQMNSLKPEDTAVYYCAAVYYLTDWYGVWYSFDYWGQGTQVTVSS” the “polyreactivity (PSR sort gate)” value was “low polyreactivity”.
In the case of “QVQLVESGGGLVQAGGSLRLSCAASGRTFYGYAMGWYREAPGKERELVASISWSTGSTHYADSVKGRFTISRDNAKNTVYLQMNSLKPEDTAVYYCAAPFWRDSYVQIDYDYWGQGTQVTVSS”, the “polyreactivity (PSR sort gate)” value was “low polyreactivity”.
For “QVQLVESGGGLVQAGGSLRLSCAASGRTFYGYAMGWYRQAPAKERELVAAITWSVGRTYYADSVKGRFTISRDNAKNTVYLQMNSLKPEDTAVYYCAAQRAGLFNYWGQGTQVTVSS”, the “polyreactivity (PSR sort gate)” value was “low polyreactivity”.
In the case of “QVQLVESGGGLVQAGGSLRLSCAASGRTFYGYAMGWYRQAPGKERELVAAITYSGGRTYYADSVKGRFTISRDNAKNTVYLQMNSLKPEDTAVYYCNTGYWYVSLGSYDYYGEYDYWGQGTQVTVSS”, the “polyreactivity (PSR sort gate)” value was “high polyreactivity”.
For “QVQLVESGGGLVQAGGSLRLSCAASGRTFYGYAMGWYRQAPGKERELVASISRDGYTNYADSVKGRFTISRDNANNTVYLQMTSLKPEDTAVYYCAADFWYYRYPIYYYSYDYWGQGTQVTVSS”, the “polyreactivity (PSR sort gate)” value was “low polyreactivity”.
In the case of “QVQLVESGGGLVQAGGSLRLSCAASGRTFYHNAMGWYRQAPGKERELVAAITSGARTKYADSVKGRFTISRDNAKNTVYLQMNSLKPEDTAVYYCAAVYYFGKGKTFDYWGQGTQVTVSS”, the “polyreactivity (PSR sort gate)” value was “high polyreactivity”.
In the case of “QVQLVESGGGLVQAGGSLRLSCAASGRTFYIYAMGWYRPAPGKERELVAAITYGGGRTFYADSVKGRFTISRDNAKNTVYLQMNSLKPEDTAVYYCAATVRGKRSTYDYWGQGTQVTVSS”, the “polyreactivity (PSR sort gate)” value was “high polyreactivity”.
